For 2 substances, Kd results are on record in paper doi:10.1101/580043.

In assay [1] the target is Recombinant full-length MBP-tagged DEPS-1 (C. elegans) (UniProt Q9N303). Kind of assay: MST.
Assay [2] concerns the target MBP-tagged PRG-1 PIWI domain (C. elegans). Kind of assay: MST.

pKd: −log10 of the molar value.

Sequence of MBP-tagged DEPS-1 N-terminal fragment (DEPS-1^frag1) (domain or fragment) (Q9N303 whole entry, the tested form may be a part): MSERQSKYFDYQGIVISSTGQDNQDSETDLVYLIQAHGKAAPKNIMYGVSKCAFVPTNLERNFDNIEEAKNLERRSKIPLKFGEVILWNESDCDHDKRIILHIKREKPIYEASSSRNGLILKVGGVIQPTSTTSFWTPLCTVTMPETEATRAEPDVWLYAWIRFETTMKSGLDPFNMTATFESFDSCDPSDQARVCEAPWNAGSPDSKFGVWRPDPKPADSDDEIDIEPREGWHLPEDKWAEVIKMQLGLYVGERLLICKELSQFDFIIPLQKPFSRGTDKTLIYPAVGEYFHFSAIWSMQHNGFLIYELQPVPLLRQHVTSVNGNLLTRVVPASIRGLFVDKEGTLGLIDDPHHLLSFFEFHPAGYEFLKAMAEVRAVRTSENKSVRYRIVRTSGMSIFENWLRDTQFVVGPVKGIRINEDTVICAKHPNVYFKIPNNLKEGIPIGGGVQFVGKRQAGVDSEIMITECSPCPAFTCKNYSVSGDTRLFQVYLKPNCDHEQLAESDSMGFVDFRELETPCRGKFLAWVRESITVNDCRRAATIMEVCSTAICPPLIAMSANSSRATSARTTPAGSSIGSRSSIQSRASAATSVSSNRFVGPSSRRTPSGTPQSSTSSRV
Sequence of Recombinant full-length MBP-tagged DEPS-1 (C. elegans) (Q9N303 whole entry, the tested form may be a part): as above

Take “MBP-tagged PRG-1 PIWI domain (domain or fragment)”: the pKd (in general, the negative decadic logarithm of the Kd, by convention in mol/L) in assay [1] was 6.46.

In turn, “MBP-tagged DEPS-1 N-terminal fragment (DEPS-1^frag1) (domain or fragment)” gave a pKd in assay [2] of 6.82.
